Patent US20170305994A1 (Novo Nordisk, published 2017)

T1: human DR3 (full length, on cells) (human, UniProt Q93038 25-417)
T1 sequence: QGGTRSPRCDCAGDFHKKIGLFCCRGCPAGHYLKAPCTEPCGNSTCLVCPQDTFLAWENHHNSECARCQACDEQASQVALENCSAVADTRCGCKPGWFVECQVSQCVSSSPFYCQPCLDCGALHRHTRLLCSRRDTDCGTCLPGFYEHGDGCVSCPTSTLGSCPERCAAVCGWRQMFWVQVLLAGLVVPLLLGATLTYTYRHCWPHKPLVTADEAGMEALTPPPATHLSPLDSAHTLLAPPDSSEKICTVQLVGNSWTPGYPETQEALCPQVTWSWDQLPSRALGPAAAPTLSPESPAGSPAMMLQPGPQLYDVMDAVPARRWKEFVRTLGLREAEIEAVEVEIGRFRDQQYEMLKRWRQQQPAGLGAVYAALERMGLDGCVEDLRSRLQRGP

T2: human DR3 with the death domain deleted (ΔM339-P417 of SEQ ID NO:1), expressed on CHOK1SV cells (human, UniProt Q93038 25-338)
T2 construct: also called truncated DR3; hDR3 expressing CHO cells
T2 sequence: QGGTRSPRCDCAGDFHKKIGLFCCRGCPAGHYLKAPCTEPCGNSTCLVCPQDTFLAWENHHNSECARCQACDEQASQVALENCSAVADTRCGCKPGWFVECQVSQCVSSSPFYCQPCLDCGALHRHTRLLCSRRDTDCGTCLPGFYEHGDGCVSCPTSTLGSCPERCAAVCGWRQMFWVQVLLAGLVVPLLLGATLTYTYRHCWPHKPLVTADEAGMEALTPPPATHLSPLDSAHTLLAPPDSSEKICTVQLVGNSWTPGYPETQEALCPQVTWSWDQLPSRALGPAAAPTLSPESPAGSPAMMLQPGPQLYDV

T3: cynomolgus DR3 (on HEK293 reporter cells) (cynomolgus, UniProt A0A2K5WJ09 98-464)
T3 sequence: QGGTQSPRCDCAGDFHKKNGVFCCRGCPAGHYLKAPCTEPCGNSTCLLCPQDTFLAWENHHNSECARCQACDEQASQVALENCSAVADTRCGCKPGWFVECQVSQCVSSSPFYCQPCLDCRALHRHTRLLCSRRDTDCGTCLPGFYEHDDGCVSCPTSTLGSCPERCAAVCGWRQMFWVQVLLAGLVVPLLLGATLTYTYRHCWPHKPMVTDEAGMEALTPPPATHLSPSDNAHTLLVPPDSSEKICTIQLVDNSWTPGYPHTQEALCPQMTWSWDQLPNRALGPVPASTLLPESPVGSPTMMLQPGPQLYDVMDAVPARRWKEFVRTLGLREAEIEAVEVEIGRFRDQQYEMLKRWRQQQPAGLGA

T4: marmoset DR3 (transiently expressed on HEK293 cells) (marmoset, UniProt U3ENN5 27-418)
T4 sequence: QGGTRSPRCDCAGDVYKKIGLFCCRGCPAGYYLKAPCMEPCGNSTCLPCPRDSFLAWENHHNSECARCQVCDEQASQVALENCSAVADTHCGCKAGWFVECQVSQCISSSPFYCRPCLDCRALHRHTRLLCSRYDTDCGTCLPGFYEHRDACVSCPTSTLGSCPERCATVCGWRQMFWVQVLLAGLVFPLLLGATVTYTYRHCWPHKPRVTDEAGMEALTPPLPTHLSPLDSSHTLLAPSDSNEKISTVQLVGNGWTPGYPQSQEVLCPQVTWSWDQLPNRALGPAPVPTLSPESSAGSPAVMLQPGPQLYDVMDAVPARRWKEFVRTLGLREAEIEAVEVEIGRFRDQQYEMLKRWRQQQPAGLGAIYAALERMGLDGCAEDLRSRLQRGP

B1: 0148 (chimeric Fab of 5F13, human IgG4 constant domain, hinge Cys->Ser) (Fab, V domains shown)
VH: EVQLVESGGGLVKPGGSLKFSCAVSGFTFSSYVMSWVRQTPEKRLEWVAAISSDSTYTYYLDSVKGRFTISRDNAKNTLYLQMSSLRSEDTAMYYCARQTRSDAMDYWGQGTSVTVSS
VL: DIVLTQSPASLAVSLGQRATISCRASESVDNYGNSFMHWYQQKPGQPPKLLIYRASNLESGIPARFSGSGSRTDFTLTINPVEADDVAIYYCQQSNEDPLTFGAGTKLELKR
notes: IgG4-Ser, chimeric
B2: 0123 (chimeric Fab of 27F44, human IgG4 constant domain, hinge Cys->Ser) (Fab, V domains shown)
VH: EVKLVESGGGLVKPGGSLKLSCSASGFAFSNYDMSWVRQTPEKRLEWVAAFSSDGYTFYPDSLKGRFTISRDNARNTLYLQMSSLGSEDTALYCCARHADYANYPVMDYWGQGTSVTVSS
VL: DIVLAQSPASLLVSLGQRATISCRASKSVSTSGYSYMHWYQQKPGQPPKLLIYLASNLESGVPARFSGSGSGTDFTLNIHPVEEEDAATYYCQHSRELPLTFGAGTMLELKR
notes: murine variable domains, human IgG4 constant domain (IgG4-Ser)

Tests used:
[1] = biological target: T1, human DR3 (full length, on cells); assay: cell-based or functional assay
[2] = biological target: T2, human DR3 with the death domain deleted …; assay: FACS on DR3 expressing cells; competitor Mab 0107
DR3 (ECD)-Fc = biological target: T5, DR3 (ECD)-Fc (human); assay: HX-MS with hDR3 ECD-Fc
T5 construct: ECD of DR3, a linker with a TEV cleavage site and the Fc part of human IgG4; dimeric fraction used; also called DR3-Fc; hDR3-Fc
Procedure: The Leap robot was equipped with two temperature controlled stacks maintained at 20° C. for buffer storage and HX reactions and maintained at 2° C. for storage of protein and quench solution, respectively. The Waters HDX system furthermore contained a temperature controlled chamber holding the pre- and analytical columns, and the LC tubing and switching valves at 1° C. A separately temperature controlled chamber holds the pepsin column at 25° C. […] The resulting peptides were trapped and desalted on a VanGuard pre-column BEH C18 1.7 μm (2.1×5 mm (Waters Inc.)). Subsequently, the valves were switched to place the pre-column inline with the analytical column, UPLC-BEH C18 1.7 μm (1×100 mm (Waters Inc.)), and the peptides separated using a 9 min gradient of 10-40% B delivered at 200 μl/min from the nanoAQUITY UPLC system (Waters Inc.). The mobile phases consisted of A: 0.1% formic acid and B: 0.1% formic acid in CH₃CN. The ESI MS data, and the separate elevated energy (MS^E) experiments were acquired in positive ion mode using a Synapt G2 mass spectrometer (Waters Inc.).
All HX reactions were carried out at 20° C. and contained […] hDR3 in the absence or presence of […] Fab thus giving a 5 fold molar excess of Fab. […]

[3] = biological target: T2, human DR3 with the death domain deleted …; assay: FACS on DR3 expressing cells; competitor Mab 0121
[4] = biological target: T2, human DR3 with the death domain deleted …; assay: flow cytometry competition: Fab vs TL1A on hDR3-expressing CHO cells
[5] = biological target: T3, cynomolgus DR3 (on HEK293 reporter …); assay: cell-based or functional assay
DR3 (CRD1)-Fc = biological target: T6, DR3 (CRD1)-Fc (human); assay: SPR
T6 construct: Amino acids 25-71 of DR3 fused to the Fc domain of human IgG4; purified to exclude oligomers (mainly dimeric)
Text: The extracellular moiety of DR3 is located at the aminoterminal portion of DR3 and is comprised of four TNF receptor cysteine-rich domains. Several fusion proteins were expressed and purified which contained parts of the extracellular domain of DR3 of increasing length fused to the Fc domain of a human IgG4. The DR3 proteins used for SPR analysis had been purified to exclude oligomerized material. These proteins were immobilized to a CM5 sensor chip using amine coupling chemistry. Binding of anti-DR3 antibodies termed 0070, 0072, 0073 and 0076, to the different DR3-Fc fusion proteins was tested by means of plasmon surface binding measurements on a Biacore T100 instrument (GE Healthcare). All of these antibodies inhibit binding of TL1A to DR3 in a FACS assay. These 4 antibodies bound to recombinant DR3 (CRD1)-Fc protein that contained only the aminoterminal CRD (SEQ ID NO:2) comprised of amino acids 25-71 of DR3.
The same analysis was also performed for some of the Fab fragments.

[6] = biological target: T4, marmoset DR3 (transiently expressed on …); assay: cell-based or functional assay
[7] = biological target: T1, human DR3 (full length, on cells); assay: cell-based or functional assay; remark: listed apart in the source
[8] = biological target: T3, cynomolgus DR3 (on HEK293 reporter …); assay: cell-based or functional assay; remark: listed apart in the source
[9] = biological target: T1, human DR3 (full length, on cells); assay: cell-based or functional assay; remark: listed apart in the source

| Binder | max % inhibition of TNFalpha, donor 1 [1] [%] | max % inhibition of TNFalpha, donor 2 [1] [%] | molar ratio Mab/Fab from which the Fab inhibits [2] | binding result (DR3 (ECD)-Fc) | molar ratio Mab/Fab from which the Fab inhibits fully [3] | IC50 [4] [nM] | max percentage inhibition [4] [%] | IC50 at 40 ng/ml TL1A, Lyda20 reporter cells [5] [nM] | binding result (DR3 (CRD1)-Fc) | IC50, TNFalpha inhibition, TL1A-activated CD4+ T cells, donor 1 [1] [nM] | IC50, TNFalpha inhibition, TL1A-activated CD4+ T cells, donor 2 [1] [nM] | IC50, TNFalpha inhibition, average (n 22) [1] [nM] | IC50 at 40 ng/ml TL1A, transient reporter HEK293 [6] [nM] | IC50 at 40 ng/ml TL1A, transient reporter HEK293 [7] [nM] | IC50 at 40 ng/ml TL1A, transient reporter HEK293 [8] [nM] | IC50 at 40 ng/ml TL1A, I5 reporter cells [9] [nM] |
| --- | --- | --- | --- | --- | --- | --- | --- | --- | --- | --- | --- | --- | --- | --- | --- | --- |
| B1 | 9.5 | -8.5 | 100 Fab per Mab (molar ratio Mab/Fab 1:n) | binds | 3 Fab per Mab (molar ratio Mab/Fab 1:n) | 9.22 | 33 | – | – | – | – | – | – | – | – | – |
| B2 | 83.5 | 75.9 | – | – | – | 0.443 | 80 | 236 | binds | 0.301 | 0.32 | 0.208 | 0.323 | 0.33 | 99 | 0.188 |
